Substitutions are numbered along the chain they refer to.
B1: T32_Kan[209]_top1 (AEEEAARFAALLAALP-GSK-ip4_mutG), purified peptide (designed binder)
peptide: AEEEAARFAALLAALPGSKWARLARRTAGAGGVTLNGAG
notes: designed N-terminal extension; linker; ip4_mutG; source: E. coli BL21(DE3) Star, purified (Ni-NTA, SUMO protease, Resource RPC, Superdex 30); not shown: His6, N-terminal, cleaved; SUMO, N-terminal, cleaved
B2: Kan[348]_top1 (SAAARWAAALAALP-GSK-ip4_mutG), purified peptide (designed binder)
peptide: SAAARWAAALAALPGSKWARLARRTAGAGGVTLNGAG
notes: as for B1
B3: Kan[348]_top2 (AAAERARFAALLAKLP-GSK-ip4_mutG), purified peptide (designed binder)
peptide: B1 peptide with E2A, E3A, A5R, A14K
notes: as for B1
B4: ip4_mutG (peptide)
peptide: WARLARRTAGAGGVTLNGAG
notes: also called constant C-terminal scaffold

Biological target: T1, Recombinant human ASF1AN (residues 1 to 156) (human, UniProt Q9Y294 1-156)
T1 construct: N-terminal domain of human ASF1A, UniProt Q9Y294, residues 1 to 156; Unlabeled for ITC; uniformly 15N- and/or 15N-13C-labeled for NMR; Made from pETM30 with a TEV cleavage site; also called hASF1AN; 15N-ASF1AN; source: E. coli, purified (glutathione agarose, TEV cleavage, Ni-NTA flow-through, Resource Q); not shown: His6, N-terminal, cleaved; GST, N-terminal, cleaved
T1 sequence (Q9Y294 1-156): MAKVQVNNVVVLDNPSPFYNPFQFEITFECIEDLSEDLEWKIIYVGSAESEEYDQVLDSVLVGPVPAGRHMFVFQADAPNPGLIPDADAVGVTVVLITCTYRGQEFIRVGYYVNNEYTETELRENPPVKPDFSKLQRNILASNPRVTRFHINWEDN
Assay: ITC; VP-ITC, 20 °C, 50 mM tris-HCl pH 7.5; binder injected into the ASF1 solution; One Set of Sites model; duplicate
Details: both partners purified

| Binder | Kd |
| --- | --- |
| B1 | 152 ± 25 nM |
| B2 | 235 ± 26 nM |
| B3 | 581 ± 98 nM |
| B4 | 10600 ± 1000 nM |
